In assay [1] the target is T1, recombinant LG4/5 fragment of chain alpha3 of human laminin-5 (human, UniProt Q16787 2981-3333, limits assumed).
T1 construct: Recombinantly expressed and purified on heparin as in Okamoto et al. 2003; also called alpha3LG4/5 fragment; LG4/5 domain
T1 sequence: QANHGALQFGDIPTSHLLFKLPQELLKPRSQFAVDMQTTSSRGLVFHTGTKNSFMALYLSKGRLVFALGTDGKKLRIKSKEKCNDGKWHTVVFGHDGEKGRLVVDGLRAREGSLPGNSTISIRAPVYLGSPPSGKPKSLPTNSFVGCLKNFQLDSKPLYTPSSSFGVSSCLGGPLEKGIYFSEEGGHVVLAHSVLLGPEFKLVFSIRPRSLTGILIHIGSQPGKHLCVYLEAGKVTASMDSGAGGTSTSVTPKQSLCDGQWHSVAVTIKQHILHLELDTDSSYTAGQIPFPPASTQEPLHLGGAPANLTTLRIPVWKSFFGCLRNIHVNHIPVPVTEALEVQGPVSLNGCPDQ
The experiment in a line: Western blot of the purified recombinant LG4/5 fragment.

Assay [2] addresses T2, mature form of alpha3 lacking the LG4/5 domain (human, UniProt Q16787-1 28-1348, limits assumed).
T2 construct: domain: mature form of alpha3 lacking the LG4/5 domain; Alpha3 subunit of LN5 purified from keratinocyte culture medium, reducing SDS-PAGE; also called alpha3 chain of mature LN5
T2 sequence (looked up): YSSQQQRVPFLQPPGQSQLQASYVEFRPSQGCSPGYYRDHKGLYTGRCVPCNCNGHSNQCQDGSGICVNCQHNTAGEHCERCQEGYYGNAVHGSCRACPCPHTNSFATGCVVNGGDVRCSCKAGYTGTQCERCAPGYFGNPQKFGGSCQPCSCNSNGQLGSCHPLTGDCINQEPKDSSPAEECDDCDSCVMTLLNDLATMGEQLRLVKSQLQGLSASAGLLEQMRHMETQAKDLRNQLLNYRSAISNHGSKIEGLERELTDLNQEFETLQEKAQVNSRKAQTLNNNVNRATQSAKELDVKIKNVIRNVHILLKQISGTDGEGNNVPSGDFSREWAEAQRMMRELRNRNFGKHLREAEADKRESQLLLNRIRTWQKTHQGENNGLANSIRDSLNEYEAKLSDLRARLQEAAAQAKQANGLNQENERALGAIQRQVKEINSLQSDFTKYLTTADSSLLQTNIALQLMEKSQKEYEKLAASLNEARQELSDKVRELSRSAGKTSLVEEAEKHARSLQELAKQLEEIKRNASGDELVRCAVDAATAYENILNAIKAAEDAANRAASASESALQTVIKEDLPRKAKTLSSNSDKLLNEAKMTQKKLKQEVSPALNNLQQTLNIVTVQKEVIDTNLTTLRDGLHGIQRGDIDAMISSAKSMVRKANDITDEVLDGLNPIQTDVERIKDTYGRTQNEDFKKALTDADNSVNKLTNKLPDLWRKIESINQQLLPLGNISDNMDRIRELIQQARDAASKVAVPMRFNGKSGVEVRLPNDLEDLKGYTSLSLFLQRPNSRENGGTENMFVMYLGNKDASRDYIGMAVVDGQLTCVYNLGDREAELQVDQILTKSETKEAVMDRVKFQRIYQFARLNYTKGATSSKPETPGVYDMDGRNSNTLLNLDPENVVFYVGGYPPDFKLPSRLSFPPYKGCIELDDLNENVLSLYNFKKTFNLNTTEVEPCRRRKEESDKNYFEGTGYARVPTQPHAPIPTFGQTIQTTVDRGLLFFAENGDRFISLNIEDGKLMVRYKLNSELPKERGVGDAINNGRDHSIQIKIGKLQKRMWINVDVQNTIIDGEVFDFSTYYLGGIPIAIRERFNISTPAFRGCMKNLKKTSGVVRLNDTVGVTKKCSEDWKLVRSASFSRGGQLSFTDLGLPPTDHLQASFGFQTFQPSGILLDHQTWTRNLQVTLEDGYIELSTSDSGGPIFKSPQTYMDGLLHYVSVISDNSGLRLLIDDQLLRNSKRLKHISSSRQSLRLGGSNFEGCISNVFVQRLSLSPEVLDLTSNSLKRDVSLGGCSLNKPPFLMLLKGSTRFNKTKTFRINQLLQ
The experiment in a line: Western blot of purified LN5, reducing SDS-PAGE.

B1: 1H12 monoclonal antibody produced by the hybridoma cell line named 1H12 (C.N.C.M. I-3890) (antibody, V domains shown)
VH: VKLQQSGPELVKPGASVKISCKTSGYTFTEYTIHWVKQSHGKTLEWIGGINPKNGDTSYNQKFKGKATLTVDKSSNTAYMEFRSLTSEDSAVYYCASPDLPPMDYWGQGTTVTVSS
VL: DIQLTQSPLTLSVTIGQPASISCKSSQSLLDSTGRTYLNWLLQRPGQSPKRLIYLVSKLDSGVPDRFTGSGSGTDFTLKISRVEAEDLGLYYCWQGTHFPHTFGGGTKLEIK
notes: Mouse IgG1 kappa from hybridoma (supernatant or ascites); Ends of the V domains come from PCR primers; also called 1H12 mAb; mAb 1H12
With B1, the binding result was “binds” in assay [1] and “no binding” in assay [2].
